Target: Sho1 SH3 (SHO1_YEAST), P40073
Test: SPOT array

Chain of Sho1 SH3 (SHO1_YEAST), P40073 (P40073 295-366): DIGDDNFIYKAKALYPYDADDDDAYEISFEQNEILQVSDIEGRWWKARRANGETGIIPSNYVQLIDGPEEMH

normalised SPOT signal, Boehringer light units (BLU); mean over the file's lines of this peptide	Binder
366	TSTPPLPRRRATTS [247-260 Glycine-threonine-serine repeat protein]
0	TNPPIDPIREANVM [572-585 Glutamate synthase (NADPH)]
210	SSFPTIPLRASSGA [232-245 Hypothetical ORF]
161	SSTPIVPNRLKTVL [158-171 DNA replication helicase]
94.6	VSIPFDPSKDTFDH [741-754 P-type ATPase]
150	VVSPSHPFKQLQKI [146-159 (putative) involved in cell wall biogenesis]
178	TDYPFKPPKISFTT
129	VTVPKLPFKLAVNK [181-194 integral membrane protein]
67.2	SNSPQIPKKKVKDQ [1825-1838 Hypothetical ORF]
83.4	SSQPRPPPRPQQNP [71-84 Hypothetical ORF]
198	YGPPTDPRKQKQAK [36-49 neutral trehalase]
63.7	SSMPNSPKKPVDSL [117-130 Product of gene unknown]
174	VDAPINPTKILTFI [375-388 Weak similarity to Pta1p (pre-tRNA processing protein)]
45.2	TTAPRGPKKAQPAQ [176-189 transcriptional activator of the SKN7 mediated 'two-component' regulatory system]
1010	SRKPPIPAKQHVKK [547-560 Ubiquitin-specific protease]
74.8	TDYPFKPPKVNFTT
11300	VPPPNVPKKDKREV [659-672 Ubiquitin-specific protease]
513	VIRPGVPTKFTKKQ [1275-1288 Glutamate synthase (NADPH)]
128	TPPPVEPLKTKDLA [102-115 Hypothetical ORF]
60.5	THAPTTPNRTSPNR [507-520 serine/threonine protein kinase]

normalised SPOT signal, Boehringer light units (BLU); mean over the file's lines of this peptide	Binder
138	TEPPMNPLKNREKM [109-122 actin-related protein]
60.9	TPAPNLPEKTRLAL [872-885 Urea amidolyase (contains urea carboxylase and allophanate hydrolase)]
177	TRRPHHPLKQQSTN [34-47 Hypothetical ORF]
115	STSPPRPKRIVVAI [48-61 Phenylacrylic acid decarboxylase]
79.6	TEVPSKPKKPSKTE [568-581 negative regulator of prp genes]
198	VHGPGIPMKSLEVA [381-394 MAL-activator protein]
898	WSYPYEPLRVLQVG [17-30 Hypothetical ORF]
128	VHDPNIPLRPKEII [643-656 Ubiquitin-protein ligase]
81.7	TDSPQLPSKDKSQE [472-485 " Anti-silencing protein, involved in transcription"]
88	VHGPGVPVKTLEIA [386-399 MAL-activator protein]
342	VFLPTAPSKHMDFA [478-491 TATA binding protein-associated factor (TAF)]
235	VSTPPVPKKFQEIF [9-22 cox1 pre-mRNA splicing factor]
452	TLRPGIPLKPMLAK [384-397 DNA ligase]
58	VVIPPVPSRYSDER [95-108 Product of gene unknown]
763	TTRPAPPSKAKDVA [347-360 Hypothetical ORF]
8540	VETPPKPIKKDVRF [535-548 " cytoskeletal protein, similar to arrestins"]
120	VTLPISPSRASISF [70-83 Hypothetical ORF]
392	VSDPYVPTRNTFNY [142-155 ubiquitin-mediated 26S proteasome subunit]
121	SSIPPNPGKTAKPI [108-121 " Probable transcription-associated factor protein, probable -transducin type"]
214	SSTPTTPERPKRKS [758-771 Hypothetical ORF]

normalised SPOT signal, Boehringer light units (BLU); mean over the file's lines of this peptide	Binder
86.6	TLIPPIPEKQSIKN [210-223 Hypothetical ORF]
121	VLEPSKPYKKNPFM [663-676 Hypothetical ORF]
136	VTLPTGPAKIIWEK [510-523 cytochrome P450 lanosterol 14a-demethylase]
102	VFSPTNPLRIKIAR [326-339 putative calcium channel]
132	TEAPMNPLKNREQM [114-127 Centractin]
-0	VDPPFMPFRDAGYS [120-133 soluble tyrosine-specific protein phosphatase]
1240	WNLPWSPFKITTIM [95-108 Translation initiation factor eIF-2B epsilon subunit]
132	TKVPSKPDRNSKIL [463-476 global regulator of transcription]
160	VKRPLSPTRINGKS
157	VENPFLPAKEERTG [910-923 159-kDa nucleoporin with coiled-coil domain and repeated motifs typical of nucleoporins]
3660	WKPPDLPIRLRKRP [502-515 Ubiquitin-specific protease]
290	YILPKNPFRVPSEM [125-138 Hypothetical ORF]
29.3	TNYPVNPEKHEMDK [1667-1680 GTPase activating protein]
691	VKHPMKPFRLMLTD [43-56 (putative) histone deacetylase]
128	VQQPEDPLRVLGEY [143-156 Hypothetical ORF]
102	SSRPTSPVRKARST [28-41 (putative) cell cycle exonuclease]
107	TSAPDIPPRSPNRN [54-67 Hypothetical ORF]
40.1	TKTPTQPIRLQTVS [519-532 putative zinc finger protein]
73.5	SSYPMNPPKISFMQ [86-99 Member of ubiquitin-conjugating protein family]

From article PMC314469, “Protein Interaction Networks by Proteome Peptide Scanning” (PLoS Biology, 2004)
